The text below walks through data of US20190321478A1 (published 2019).

Assay [1] deals with T1, TMEM175 (peptide code TMEM175-001) peptide on HLA-A*02:01 (human).
T1 peptide: ILLPYVSKV
As to the kind of experiment: cytokine release.

The target of assay [2] is T2, EPAS (peptide code EPAS-001) peptide on HLA-A*02:01 (human).
T2 peptide: KALEGFIAV
As to the kind of experiment: cytokine release.

For assay [3], the target named is T3, PTRF (peptide code PTRF-001) peptide on HLA-A*02:01 (human).
T3 peptide: KLLEKVRKV
The assay can be described thus: cytokine release.

Assay [4] has as its target T4, GALNTL4 (peptide code GALNTL4-001) peptide on HLA-A*02:01 (human).
T4 peptide: KLTEYVDKV
As to the kind of experiment: cytokine release.

In assay [5] the target is T5, PSME2 (peptide code PSME2-001) peptide on HLA-A*02:01 (human).
T5 peptide: KVLERVNAV
The assay can be described thus: cytokine release.

The target in assay [6] is T6, KIAA103 (peptide code KIAA103-002) peptide on HLA-A*02:01 (human).
T6 peptide: KVLNKVITV
The assay can be described thus: cytokine release.

Assay [7] addresses T7, NSD1 (peptide code NSD1-001) peptide on HLA-A*02:01 (human).
T7 peptide: KVQEQVHKV
The assay can be described thus: cytokine release.

Assay [8] addresses T8, TBC1D9 (peptide code TBC1D9-002) peptide on HLA-A*02:01 (human).
T8 peptide: LLLPDVIKV
As to the kind of experiment: cytokine release.

Assay [9] deals with T9, TMTC4 (peptide code TMTC4-001) peptide on HLA-A*02:01 (human).
T9 peptide: NVLEIVQKV
As to the kind of experiment: cytokine release.

In assay [10] the target is T10, RASAL2 (peptide code RASAL2-002) peptide on HLA-A*02:01 (human).
T10 peptide: SVLEPVISV
The assay can be described thus: cytokine release.

In assay [11] the target is T11, MAGEA1 (peptide MAGEA1-003) peptide on HLA-A*02:01 (human).
T11 peptide: KVLEYVIKV
The assay can be described thus: multimer staining.

B1: R26P2A6 (TCR, V domains shown)
Valpha: QKEVEQDPGPLSVPEGAIVSLNCTYSNSAFQYFMWYRQYSRKGPELLMYTYSSGNKEDGRFTAQVDKSSKYISLFIRDSQPSDSATYLCAMSDVSGGYNKLIFGAGTRLAVHP
Vbeta: EAQVTQNPRYLITVTGKKLTVTCSQNMNHEYMSWYRQDPGLGLRQIYYSMNVEVTDKGDVPEGYKVSRKEKRNFPLILESPSPNQTSLYFCASTTPDGTDEQFFGPGTRLTVL
For the molecule B1, the binding result in assay [1], in assay [2], in assay [3], in [4], in assay [5] and in assay [6] was “no recognition” throughout. In addition, the binding result in assay [7] is on record as “no recognition”; in assay [8], “no recognition”; in [9], “no recognition”; in assay [10] it was “no recognition”; in assay [11], “recognises”.

B2: R26P3H1 (TCR, V domains shown)
Valpha: AQSVAQPEDQVNVAEGNPLTVKCTYSVSGNPYLFWYVQYPNRGLQFLLKYITGDNLVKGSYGFEAEFNKSQTSFHLKKPSALVSDSALYFCAVRDMNRDDKIIFGKGTRLHILP
Vbeta: DGGITQSPKYLFRKEGQNVTLSCEQNLNHDAMYWYRQDPGQGLRLIYYSQIVNDFQKGDIAEGYSVSREKKESFPLTVTSAQKNPTAFYLCASSRAEGGEQYFGPGTRLTVT
For B2, the binding result in [1], in [2], in assay [3], in assay [4], in [5] and in assay [6] was “no recognition” in each case. The binding result is on record as “no recognition” in assay [7]; “no recognition” in [8]; “no recognition” in [9]; “no recognition” in assay [10]; “recognises” in assay [11].

B3: R59P2E7 (TCR, V domains shown)
Valpha: KQEVTQIPAALSVPEGENLVLNCSFTDSAIYNLQWFRQDPGKGLTSLLLIQSSQREQTSGRLNASLDKSSGRSTLYIAASQPGDSATYLCAVNSDYKLSFGAGTTVTVRA
Vbeta: AAGVIQSPRHLIKEKRETATLKCYPIPRHDTVYWYQQGPGQDPQFLISFYEKMQSDKGSIPDRFSAQQFSDYHSELNMSSLELGDSALYFCASSLGLGTGDYGYTFGSGTRLTVV
Regarding B3, the binding result in assay [1], in [2], in assay [3], in assay [4], in [5] and in assay [6] was “no recognition” throughout. Moreover, the binding result was “no recognition” in [7]; “no recognition” in [8]; “no recognition” in [9]; “no recognition” in assay [10]; “recognises” in assay [11].

B4: R37P1H1 (TCR, V domains shown)
Valpha: AQTVTQSQPEMSVQEAETVTLSCTYDTSESNYYLFWYKQPPSRQMILVIRQEAYKQQNATENRFSVNFQKAAKSFSLKISDSQLGDTAMYFCAFGYSGGGADGLTFGKGTHLIIQP
Vbeta: DAGVTQSPTHLIKTRGQQVTLRCSPKSGHDTVSWYQQALGQGPQFIFQYYEEEERQRGNFPDRFSGHQFPNYSSELNVNALLLGDSALYLCASSNEGQGWEAEAFFGQGTRLTVV
For B4, the binding result in assay [1], in [2], in [3], in assay [4], in assay [5] and in [6] was “no recognition” in each case. For the same molecule, the binding result was “no recognition” in assay [7]; “no recognition” in assay [8]; “no recognition” in assay [9]; “no recognition” in [10]; “recognises” in [11].

B5: R42P3A9 (TCR, V domains shown)
Valpha: GIQVEQSPPDLILQEGANSTLRCNFSDSVNNLQWFHQNPWGQLINLFYIPSGTKQNGRLSATTVATERYSLLYISSSQTTDSGVYFCAVHNFNKFYFGSGTKLNVKP
Vbeta: AAGVIQSPRHLIKEKRETATLKCYPIPRHDTVYWYQQGPGQDPQFLISFYEKMQSDKGSIPDRFSAQQFSDYHSELNMSSLELGDSALYFCASSLLGQGYNEQFFGPGTRLTVL
Regarding B5, the binding result in assay [1], in [2], in assay [3], in assay [4], in assay [5] and in [6] was “no recognition” each time. Besides, the binding result is “no recognition” in assay [7]; “no recognition” in assay [8]; “no recognition” in assay [9]; “no recognition” in [10]; “recognises” in assay [11].

B6: R26P1A9 (TCR, V domains shown)
Valpha: SQQGEEDPQALSIQEGENATMNCSYKTSINNLQWYRQNSGRGLVHLILIRSNEREKHSGRLRVTLDTSKKSSSLLITASRAADTASYFCLIGASGSRLTFGEGTQLTVNP
Vbeta: DAGVIQSPRHEVTEMGQEVTLRCKPISGHDYLFWYRQTMMRGLELLIYFNNNVPIDDSGMPEDRFSAKMPNASFSTLKIQPSEPRDSAVYFCASSYFGWNEKLFFGSGTQLSVL
B6: the binding result in assay [1], in assay [2], in assay [3], in assay [4], in assay [5] and in assay [6] was “no recognition” in each case. The binding result in assay [7] is listed as “no recognition”; in assay [8] it was “no recognition”; in [9], “no recognition”; in [10] it was “no recognition”; in assay [11], “recognises”.
